Reference: the RNAGym collection of RNA variant scans (doi:10.7554/elife.90254)

B1: OR4K15 (parent)
chain: GUUAACGGUCAUAGGCCAUGGAAACUAGGAGCACCAUUUCGCUGCCAGUGAAGAAAUGAACAAAGAAAAUCUGGGCCAGGCAGGCAUCAAAAGAAAUAGUCUUGCGCUCAACCAGAAAGUCUGUAAUCAUUUUAAGGGUA

Variants of: B1
Experiment: self-cleavage, relative activity (ratio to wild type); higher = more cleavage; in vitro, sequencing; the parent is a self-cleaving ribozyme

Variant | self-cleavage
A51C U102A | 0.84
A54G A55U | 1.55
A51G A116U | 0.05
A51G A116G | 0.48
A51U U97C | 1.37
G53A A54U | 1.67
A52G A90U | 1.81
A52G A90G | 0.99
A51G A69G | 1.24
A51G A69U | 1.41
A51G G79A | 0.23
A51G G79U | 0.1
G50A C113A | 0
A52G C76U | 0.13
A52G C76G | 0.03
A54G A60G | 1.02
A54G A60U | 1.59
A52G A86G | 1.41
A52G A89C | 2.11
A52G A78U | 0.47
A54G G74U | 0.11
A51U A56G | 0.93
G50A A64G | 1.22
A54G G106A | 0.02

Variant | self-cleavage
A52C A116G | 0.64
A52C A89G | 1.02
A52G U100A | 0.65
A52G U100C | 2.01
A52U U70C | 1.72
A51U U122A | 0.74
A51U U122C | 1.26
A52U A59U | 1.99
A52C A78C | 0.21
A54G A95U | 1.53
A51G U120C | 0.85
A51U A111U | 0.06
A51U A111G | 0.04
A51U U87C | 0.54
A52G A135G | 1.44
A52G A135U | 1.37
A51U A126G | 1.46
A52C A126G | 0.42
A51G U103G | 0.05
A51G U103A | 0.32
A52U A98U | 1.72
G50U A52G | 0.42
G53U A60U | 1.71
G50U G79A | 0.11

Variant | self-cleavage
A54C U120C | 0.93
A52G U127C | 0.95
A52U U72G | 0.39
A52U U72C | 0.17
A51G U133C | 1.46
A52G G75A | 0.23
A51U A114G | 0.19
A52G U131C | 1.51
A51G U122C | 0.6
G50U G53A | 2.2
A52C G84U | 0.51
A51C A60G | 2.31
A54G A78G | 0.3
A51U G93A | 1.71
A52G A116U | 0.12
A52U U102A | 0.36
A52G A56C | 0.99
A51U A78G | 0.26
A51U A78C | 0.2
G53A U103C | 0.64
A51G A89C | 1.6
A52G A94G | 1.99
A52G A94U | 2.01
A52G C71U | 0.44

Variant | self-cleavage
A51C A62G | 0.72
G53U A59G | 1.26
G50U A63G | 0.92
A54G A110U | 1.71
A51G A54G | 0.81
A51G A59G | 0.89
A54G G115A | 0.25
A54G A98G | 0.33
G53U C112U | 0.01
A51G A91G | 0.5
A51G A91C | 1.97
G50C A56G | 1.42
G53A G75A | 0.09
A51U U124C | 0.77
A54G C112U | 0.03
A52G A62U | 1.2
A52G A62G | 1.19
A52U A117G | 1.11
A51G U87C | 0.86
A51G U87A | 1.3
A52C U103A | 0.98
A54G A67G | 1.57
A51U U108C | 0.02
A54G A114U | 0.07

Variant | self-cleavage
A54G A114G | 0.4
A54G A114C | 0.09
G53A A111G | 0.02
A51U G58A | 1.56
A51U A59U | 0.5
A54C A116G | 0.17
G53U A126G | 1.4
A51U U70C | 0.46
G50U U120C | 1.29
G53A G119U | 2.11
A54G A140U | 1.25
A51G A135G | 1.7
A52U U124G | 0.84
A52U A69U | 1.98
A52U A69G | 2.44
A54G A68G | 0.91
A51G U102C | 2.58
A51C A82G | 0.67
A52G C128U | 1.26
A51G U100G | 1.63
G50U A125U | 2.34
G50U A82U | 0.23
A51C A59G | 1.73
A51G G53U | 1.66

Variant | self-cleavage
A51U G84A | 0.65
A52G A114G | 0.28
A52G A114U | 0.14
A51G A92G | 1.45
A51G A92U | 2.09
A52G A69G | 0.65
A51U A90G | 0.91
A52C A94G | 2.5
A52U U131C | 0.4
A52C A82G | 0.55
G50U U100G | 1.34
A52G U120C | 1.16
A52U A94U | 1.94
A52U A55G | 1.07
A52U A55U | 1.62
A51U G74A | 0.22
G53A U100C | 2.52
A52G C77A | 1.2
A54G G93A | 1.21
A52G A82U | 0.2
A52G A82G | 0.19
A52G U72A | 0.4
A51C A94G | 2.16
A52G C121U | 1.18

Variant | self-cleavage
A52G C121G | 2.33
A52U A54U | 1.62
G50U A96G | 2.5
A51U U57C | 1.58
A54G C85U | 1.39
G53U U127A | 1.92
A51G U130C | 0.54
A51U A116G | 0.37
G50A U100G | 0.96
G50A U100C | 2.01
A51G U72A | 0.13
A51U U103C | 1.35
A51G U127G | 1.9
A52G A117U | 0.97
A52C A55U | 1.72
A52U U122C | 0.74
G53U A82U | 0.27
G53A G136U | 2.03
A51U A82C | 0.24
G50U U103C | 1.23
A51G U139C | 1.69
A52G A96U | 1.86
A52G C88U | 1.39
